Data on 25 sequences can be found in the supplement of paper PMC11780869.

The test system of the series is Bacillus subtilis. The series can be described thus: cleaved RNA product abundance (RNA/gDNA barcode ratio) relative to median wild-type variant (ratio to wild type); higher = more accumulation of the downstream cleavage product. The settings on record: experiment (reporter, strain, medium): exp 8a: truncated aprE reporter, strain BJT201 with 2% xylose (RNase J1 expressed); cleavage site: glnRA (positions -5 to +31 mutated). The gist of the method:
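Cleaved product abundance for each construct is its RNA-to-gDNA barcode ratio, scaled to the median construct carrying the unmutated site. Cleaved RNA was isolated on a gel, reverse transcribed and barcode-sequenced, with genomic DNA barcodes sequenced alongside and UMIs collapsed. The reporters were truncated aprE or tetM mRNAs with barcoded, mutagenized RNase Y cleavage-site windows integrated into the B. subtilis chromosome, and cultures grew in LB at 37°C from OD600 0.0003 to 0.3.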
In the case of “CGACATGTCCCGCTTCTTTCATTAATTCGTTAGCAACTGTTTTGCTAAATACATTTACCTTTTAAGAGGAGGAAT”, the “cleaved RNA product abundance” value worked out at 0.362. The figure for “CGACATGTCCCGCTTCTTTCATTAATTCGTTAGCAACTGTTTTGCTATACACATTTACCTTTTAAGAGGAGGAAT” is 0.585. The figure for “CGACATGTCCCGCTTCTTTCATTAATTCGTTAGCAACTGTTTTGCTATATAAATTTACCTTTTAAGAGGAGGAAT” is 1.12; for “CGACATGTCCCGCTTCTTTCATTAATTCGTTAGCAACTGTTTTGCTATATACAATTACCTTTTAAGAGGAGGAAT” it is 1.18; for “CGACATGTCCCGCTTCTTTCATTAATTCGTTAGCAACTGTTTTGCTATATACACTTACCTTTTAAGAGGAGGAAT” it is 0.629. The figure for “CGACATGTCCCGCTTCTTTCATTAATTCGTTAGCAACTGTTTTGCTATATACATATACCTTTTAAGAGGAGGAAT” is 0.859; for “CGACATGTCCCGCTTCTTTCATTAATTCGTTAGCAACTGTTTTGCTATATACATGTACCTTTTAAGAGGAGGAAT” it is 0.933; for “CGACATGTCCCGCTTCTTTCATTAATTCGTTAGCAACTGTTTTGCTATATACATTTAACTTTTAAGAGGAGGAAT” it is 1.68. Take “CGACATGTCCCGCTTCTTTCATTAATTCGTTAGCAACTGTTTTGCTATATACATTTACCATTTAAGAGGAGGAAT”: the “cleaved RNA product abundance” value worked out at 1.22.

As for “CGACATGTCCCGCTTCTTTCATTAATTCGTTAGCAACTGTTTTGCTATATACATTTACCCTTTAAGAGGAGGAAT”, the “cleaved RNA product abundance” value was 0.564.

As for “CGACATGTCCCGCTTCTTTCATTAATTCGTTAGCAACTGTTTTGCTATATACATTTACCGTTTAAGAGGAGGAAT”, the “cleaved RNA product abundance” value is 0.591. In the case of “CGACATGTCCCGCTTCTTTCATTAATTCGTTAGCAACTGTTTTGCTATATACATTTACCTTTTAAGAGGAGGAAT” it was 1.11; in that of “CGACATGTCCCGCTTCTTTCATTAATTCGTTAGCAACTGTTTTGCTATATACATTTACGTTTTAAGAGGAGGAAT”, 0.881. The figure for “CGACATGTCCCGCTTCTTTCATTAATTCGTTAGCAACTGTTTTGCTATATACATTTAGCTTTTAAGAGGAGGAAT” is 1.88; for “CGACATGTCCCGCTTCTTTCATTAATTCGTTAGCAACTGTTTTGCTATATACATTTATCTTTTAAGAGGAGGAAT” it is 1.4.

Regarding “CGACATGTCCCGCTTCTTTCATTAATTCGTTAGCAACTGTTTTGCTATATACATTTGCCTTTTAAGAGGAGGAAT”, the “cleaved RNA product abundance” value is 0.536. For “CGACATGTCCCGCTTCTTTCATTAATTCGTTAGCAACTGTTTTGCTATATATATTTACCTTTTAAGAGGAGGAAT”, the “cleaved RNA product abundance” value came to 1.55. In the case of “CGACATGTCCCGCTTCTTTCATTAATTCGTTAGCAACTGTTTTGCTATATTCATTTACCTTTTAAGAGGAGGAAT” it was 0.627; in that of “CGACATGTCCCGCTTCTTTCATTAATTCGTTAGCAACTGTTTTGCTATCTACATTTACCTTTTAAGAGGAGGAAT”, 0.0856. The figure for “CGACATGTCCCGCTTCTTTCATTAATTCGTTAGCAACTGTTTTGCTATTTACATTTACCTTTTAAGAGGAGGAAT” is 0.134; for “CGACATGTCCCGCTTCTTTCATTAATTCGTTAGCAACTGTTTTGTTATATACATTTACCTTTTAAGAGGAGGAAT” it is 0.602; for “CGACATGTCCCGCTTCTTTCATTAATTCGTTAGCAATTGTTTTGCTATATACATTTACCTTTTAAGAGGAGGAAT” it is 1.67. In the case of “CGACATGTCCCGCTTCTTTCATTAATTCGTTAGCACCTGTTTTGCTATATACATTTACCTTTTAAGAGGAGGAAT” it was 0.658; in that of “CGACATGTCCCGCTTCTTTCATTAATTCGTTAGTAACTGTTTTGCTATATACATTTACCTTTTAAGAGGAGGAAT”, 0.445. On to “CGACATGTCCCGCTTCTTTCATTAATTCGTTATCAACTGTTTTGCTATATACATTTACCTTTTAAGAGGAGGAAT”, for which the “cleaved RNA product abundance” value is 0.31.
